# Measured values reported in patent publication US20100168031.
# Key:
# [1] = system: L(+)-biotinyl-aminohexanoyl-Glu-Ser-Ile-Asp-Asp-Tyr-Val-Asn-Val-Pro-Glu-Gly-OH (SEQ ID NO:13)
# [2] = system: L(+)-biotinyl-aminohexanoyl-Glu-Asp-Glu-Asp-Asp-Tyr-His-Asn-Pro-Gly-Gly-OH (SEQ ID NO:14)
# [3] = system: compounds of SEQ ID NO:12; SEQ ID NO: 13; or SEQ ID NO: 14
# [4] = system: L(+)-biotinyl-aminohexanoyl-Glu-Glu-Gly-Ala-Pro-Asp-Tyr-Glu-Asn-Leu-Gln-Glu-Leu-Asn (SEQ ID NO:12)
substance,measurement,setting,value
recombinant full-length human Syk (p72syk protein tyrosine kinase),"phosphorylation of the peptide by the kinase, time resolved fluorescence resonance energy transfer",[1],are phosphorylated by Syk
same,"phosphorylation of the peptide by the kinase, time resolved fluorescence resonance energy transfer",[2],are phosphorylated by Syk
same,"fluorescence units (TR-FRET phosphorylation assay, 370 nM peptide, 10 nM Syk, 20 µM ATP)",[3],"20,000 to 30,000 fluorescence units"
same,"phosphorylation of the peptide by the kinase, time resolved fluorescence resonance energy transfer",[4],are phosphorylated by Syk
